Experiments:
[1] = test system: TIMP1; conditions: old mice after PNX, PH, or kidney I/R
Text: Macrophages/monocytes were isolated from indicated mouse tissues via antibody-coated beads isolation after PNX, PH, or Kid I/R. Expression of genes was examined by quantitative PCR.

[2] = test system: Lung and liver fibroblast cells; assay: TIMP1 treatment of lung fibroblast and liver stellate cell (immunoblot); type: cell-based, mouse
Method: TIMP1 treatment of lung fibroblast and liver stellate cell. Lung and liver fibroblast cells were from ScienceCell Research Laboratories and cultured as described previously (Reference 8). Lung and liver fibroblast cells were treated with 20 ng/ml TIMP1, 10 ng/ml TGFβ1, or 20 ng/ml TIMP1 and 10 ng/ml TGFβ1. To identify the role of β1 integrin in TIMP1-mediated fibroblast activation, p1 integrin was silenced in fibroblast cells by shRNA. After treatment, lung and liver fibroblast cells were retrieved for analysis of Smad2 phosphorylation and SMA protein expression by immunoblot. Smad2 phosphorylation and SMA protein expression were quantified by densitometry of immunoblot.

[3] = test system: NRP1; assay: HDAC and DNMT inhibitor treatment of old mice: NRP1 protein in isolated ECs (immunoblot); type: in vivo, mouse; conditions: old mice after PNX; 10 mg/kg VPA, 0.5 mg/kg AZA
Method: Injection of growth factor and treatment of HDAC and DNMT inhibitors. Three months old (young) mice were subjected to PNX, PH or kidney I/R and injected with 20 μg/kg […] or equal molar amounts of PDGF-BB, HGF, VEGF165, or TGFβ1 every three days. 3-mon Nrp1^+/+, Nrp1^iΔEC/iΔEC, or […] mice were also treated with […]. To test the regulation of […] and NRP1, old mice were treated with 10 mg/kg HDAC inhibitor VPA, 0.5 mg/kg DNMT1 inhibitor azacitidine (AZA), or combinatorial treatment of VPA and AZA (VPA+AZA). Expression of EPCR and NRP1 proteins in isolated lung, liver, and kidney ECs were tested by immunoblot, and […] amounts in homogenized organs was tested by ELISA.

[4] = test system: mouse liver fibrosis; assay: CCl4 liver injury / fibrosis model; type: in vivo; conditions: Nrp1 iΔEC/iΔEC mice after chronic injury
Method: Animal Care and Mouse lines used.
Mouse liver regeneration and repair models. Mouse liver regeneration was induced by PH.
Tissue fibrosis determination. Lung, liver and kidney fibrotic responses were determined at the indicated time after injury. Tissues were homogenized in tissue lysis buffer. Immunoblot of Collagen I was performed with the obtained tissue lysates. Protein level of Collagen I was compared between different groups. Sirius red and hematoxylin stainings were performed on paraffin-embedded tissue sections to determine the tissue morphology and Collagen deposition and distribution (Reference 8). Sirius red-positive fibrotic parenchyma was determined from five random fields in each section and quantified. Hydroxyproline amount was quantified in the liver and lung to determine the extent of fibrosis.

[5] = test system: kidney fibrosis; assay: Folic acid kidney fibrosis model; type: in vivo, mouse; conditions: Nrp1 iΔEC/iΔEC mice after chronic injury
Method: Animal Care and Mouse lines used. […] This mouse line was crossed with floxed Nrp1 […] mice to generate […] and control mice. […] Mouse kidney regeneration and repair models. Mouse kidney I/R model was adopted from described (Reference 72). After mice were anesthetized, ischemia was induced by the retroperitoneal approach on both kidneys for 30 min. Sham operation was carried out with exposure of kidneys without inducing ischemia. To generate kidney fibrosis, mice were given a single i.p. injection of folic acid at the dose of 250 mg/kg, as previously described (Reference 74). […] At indicated time, serum creatinine concentration was measured by the picric acid method, and tissue morphology and fibrosis were analyzed by Sirius red and hematoxylin co-stainings. Tissue fibrosis determination. Lung, liver and kidney fibrotic responses were determined at the indicated time after injury. Tissues were homogenized in tissue lysis buffer. Immunoblot of Collagen I was performed with the obtained tissue lysates. Protein level of Collagen I was compared between different groups. […] Sirius red-positive fibrotic parenchyma was determined from five random fields in each section and quantified. Hydroxyproline amount was quantified in the liver and lung to determine the extent of fibrosis.

[6] = test system: EPCR; assay: Growth factor injection after PNX: EPCR / HIF2α in lung ECs; type: in vivo, mouse
Method: Mouse lung regeneration and repair models. To test mouse lung alveolar regeneration and repair, models of left lung PNX (Reference 19) and lung injury (Reference 7) were adapted. Mice were anesthetized with a cocktail of ketamine (100 mg/kg) and xylazine (10 mg/kg). PNX was carried out when left lung lobe was resected with a suture tied around the hilum. PCECs were purified from 20 months (designated as old) and 3 months old (designated as young) mice after PNX, and total RNA was isolated and subjected to transcriptome analysis as described. Intratracheal injection of 2 U/kg bleomycin was employed to induce lung injury. To block EPCR signaling, mice were intraperitoneally injected with EPCR neutralizing antibody 1560 at 1.5 mg/kg (Reference 46) after PNX and Bleo injection. Young Nrp1^iΔEC/iΔEC Hif2a^iΔEC/iΔEC, and control mice were also administered with 20 μg/kg mouse P1GF or same molar amounts of HGF and PDGF-BB (Peprotech) after PNX and PH. In addition, repeated intratracheal hydrochloric acid injection models were employed to induce lung injury (Reference 76). Orotracheal instillation was performed in anesthetized mice, and 20 μl of an iso-osmolar solution of 0.1 M hydrochloric acid (pH 1.0) was instilled. […] After recovery, mice were transferred to ventilated cages with access to food and water. […] At the described time points, pulmonary function and oxygen tension in arterial blood of treated mice were measured as previously described (Reference 7). To measure cell proliferation, 100 mg/kg 5-ethynyl-2′-deoxyuridine (EDU) was i.p. injected into mice one hour before sacrificing, and EDU incorporation was measured by EDU cell proliferation kit. Mice were i.p. supplemented with 1 ml PBS after all surgery procedures.
Injection of growth factor and treatment of HDAC and DNMT inhibitors. Three months old (young) mice were subjected to PNX, PH or kidney I/R and injected with 20 μg/kg P1GF or equal molar amounts of PDGF-BB, HGF, VEGF165, or TGFβ1 every three days. 3-mon Nrp1^+/+, Nrp1^iΔEC/iΔEC, or Hif2a^iΔEC/iΔEC mice were also treated with P1GF. To test the regulation of P1GF and NRP1, old mice were treated with 10 mg/kg HDAC inhibitor VPA, 0.5 mg/kg DNMT1 inhibitor azacitidine (AZA), or combinatorial treatment of VPA and AZA (VPA+AZA). Expression of EPCR and NRP1 proteins in isolated lung, liver, and kidney ECs were tested by immunoblot, and P1GF amounts in homogenized organs was tested by ELISA.

[7] = test system: EPCR; assay: Growth factor injection after PH: EPCR in liver ECs; type: in vivo, mouse; conditions: liver lacking endothelial Nrp1 or Hif2a
Method: Mouse lung regeneration and repair models. To test mouse lung alveolar regeneration and repair, models of left lung PNX (Reference 19) and lung injury (Reference 7) were adapted. Mice were anesthetized with a cocktail of ketamine (100 mg/kg) and xylazine (10 mg/kg). PNX was carried out when left lung lobe was resected with a suture tied around the hilum. PCECs were purified from 20 months (designated as old) and 3 months old (designated as young) mice after PNX, and total RNA was isolated and subjected to transcriptome analysis as described. Intratracheal injection of 2 U/kg bleomycin was employed to induce lung injury. To block EPCR signaling, mice were intraperitoneally injected with EPCR neutralizing antibody 1560 at 1.5 mg/kg (Reference 46) after PNX and Bleo injection. Young Nrp1^iΔEC/iΔEC Hif2a^iΔEC/iΔEC, and control mice were also administered with 20 μg/kg mouse P1GF or same molar amounts of HGF and PDGF-BB (Peprotech) after PNX and PH. […] At the described time points, pulmonary function and oxygen tension in arterial blood of treated mice were measured as previously described (Reference 7). To measure cell proliferation, 100 mg/kg 5-ethynyl-2′-deoxyuridine (EDU) was i.p. injected into mice one hour before sacrificing, and EDU incorporation was measured by EDU cell proliferation kit. […]

[8] = 20 ng/ml TIMP1, co-treatment with 10 ng/ml TGF-β1

c1cc(CN2CCCNCCNCCCNCC2)ccc1CN1CCCNCCNCCCNCC1 [AMD3100]
TIMP1 upregulation in the macrophages of old organs [1]: attenuated

TIMP1: recombinant tissue inhibitor of metalloproteinases 1 incubated with fibroblast cells
phosphorylation of Smad2 ([2]; 20 ng/ml TIMP1): augmented | smooth muscle cell actin (SMA) protein expression ([2]; 20 ng/ml TIMP1): augmented | phosphorylation of Smad2 [2, 8]: further enhanced | smooth muscle cell actin (SMA) protein expression [2, 8]: further enhanced

CCCC(CCC)C(=O)O [VPA, valproic acid]
expression of NRP1 in lung ECs [3]: reduced

B1: activated protein C (protein, UniProt P04070 200-461, looked up)
Vitamin K-dependent protein C …: DTEDQEDQVDPRLIDGKMTRRGDSPWQVVLLDSKKKLACGAVLIHPSWVLTAAHCMDESKKLLVRLGEYDLRRWEKWELDLDIKEVFVHPNYSKSTTDNDIALLHLAQPATLSQTIVPICLPDSGLAERELNQAGQETLVTGWGYHSSREKEAKRNRTFVLNFIKIPVVPHNECSEVMSNMVSENMLCAGILGDRQDACEGDSGGPMVASFHGTWFLVGLVSWGEGCGLLHNYGVYTKVSRYLDWIHGHIRDKEAPQKSWAP
modifications: Vitamin K-dependent protein C heavy chain activated two-chain form
EPCR expression in liver ECs [4]: enhanced | HIF2A induction in liver ECs [4]: suppressed | EPCR expression in kidney ECs [5]: enhanced | HIF2A induction in kidney ECs [5]: suppressed

B2: P1GF: placenta growth factor, NRP1 ligand, injected into mice (protein, UniProt P49763 19-221, looked up)
Placenta growth factor: LPAVPPQQWALSAGNGSSEVEVVPFQEVWGRSYCRALERLVDVVSEYPSEVEHMFSPSCVSLLRCTGCCGDENLHCVPVETANVTMQLLKIRSGDRPSYVELTFSQHVRCECRHSPGRQSPDMPGDFRADAPSFLPPRRSLPMLFRMEWGCALTGSQSAVWPSSPVPEEIPRMHPGRNGKKQQRKPLREKMKPERCGDAVPRR
effect of P1GF on EPCR / HIF2a ([6]; Nrp1 iΔEC/iΔEC mice after PNX): abrogated | EPCR in lung ECs ([6]; young Hif2a iΔEC/iΔEC mice after PNX): did not suppress | HIF2a in lung ECs ([6]; young mice after PNX, 20 μg/kg): enhanced | EPCR expression in lung ECs ([6]; young mice after PNX, 20 μg/kg or equal molar amounts): suppressed | EPCR upregulation in liver ECs [7]: did not prohibit

Source: US20240316011A1, “ANTI-FIBROSIS PHARMACEUTICAL COMPOSITION AND APPLICATION THEREOF” (West China Second University Hospital, priority 2020, published 2024)
